Test results from patent CN113151186A (UNIV SHANGHAI JIAOTONG, dated 2021).

Molecular target: T1, 全长CD271蛋白抗原 (human CD271, full-length protein antigen) (human, UniProt P08138 29-250, limits assumed)
T1 construct: Printed only as full-length CD271 protein; also called CD271全长蛋白; 全长抗原CD271
T1 sequence (looked up): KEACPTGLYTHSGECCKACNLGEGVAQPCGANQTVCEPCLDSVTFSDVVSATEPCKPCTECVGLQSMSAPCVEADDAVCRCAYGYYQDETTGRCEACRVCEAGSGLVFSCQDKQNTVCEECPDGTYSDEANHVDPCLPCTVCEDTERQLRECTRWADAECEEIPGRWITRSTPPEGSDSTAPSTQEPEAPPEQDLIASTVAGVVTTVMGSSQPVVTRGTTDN
Experiment: BLI (ForteBio), full-length CD271 immobilised on ProA sensor, antibody at 30-130 nM

B1: 抗人CD271单克隆抗体 CD271T-2 (小鼠腹水纯化抗体, 杂交瘤细胞株CD271T-2, CGMCC 21494) (antibody, V domains shown)
VH: QVTLKESGPGILKPSQTLSLTCSFSGFSLSTSGMGVGWIRQPSGKGLEWLAHIWWDDDKYYNPSLKSQLTISKDTSRNQVFLKITSVDTAGTATYYCARRDYGNYYAMDYWGQGTSVTVS
VL: DIVLTQSPASLAVSLGQRATISCKASQSVDYDGDSYMNWYQQKPGQPPKLLIYAASNLESGIPARFSGSGSGTDFTLNIHPVEEEDAATYYCQQSNEDPFTFGSGTKLEIK
notes: It was purified from mouse ascites on MabSelect SuRe; also called CD271T-2腹水纯化抗体; 抗人CD271腹水抗体
Binder B1 has a Kd of 3.37 nM, a koff of 0.000225 s⁻¹ and a kon of 66900 M⁻¹ s⁻¹.
